Reference: article PMC3688974

Molecular target: HLA-A*02 molecules at the surface of T1 cells (human (endogenous in T1 cells))
Assay: flow cytometry on cells; T1 cells pulsed with 20 µM NY_(157-165) peptide (three pulses, stability control; or freshly for 2 h, day control); HLA-A*02/NY_(157-165) complexes detected with a complex-specific F(ab) and a PE-conjugated second antibody 24, 48 and 96 h after the last loading

NY-ESO-1_(157-165) peptide (from UniProt P78358 157-165)
percent of the complexes of freshly peptide-pulsed T1 cells still detected: 64%
